In the supplement of paper PMC7877785:
± gives the uncertainty stated by the source.

Assay: self-splicing fitness, log relative to wild type (ln ratio); higher = more splicing; Tetrahymena group I intron in knt gene, E. coli kanamycin selection, DiMSum; sequences stand for … in CUCUCU…GGAGGGAAAAGUUAUCAGGCAUGCACCUGGUAGCUAGUCUUUAAACCAAUAGAUUGCAUCGGUUUAAAAGGCAAGACCGUCAAAUUGCGGGAAAGGGGUCAACAGCCGUUCAGUACCAAGUCUCAGGGGAAACUUUGAGAUGGCCUUGCAAAGGGUAUGGUAAUAAGCUGACGGACAUGGUCCUAACCACGCAGCCAAGUCCUAAGUCAACAGAUCUUCUGUUGAUAUGGAUGCAGUUCACAGACUAAAUGUCGGUCGGGGAAGAUGUAUUCUUCUCAUAAGAUAUAGUCGGACCUCUCCUUAAUGGGAGCUAGCGGAUGAAGUGAUGCAACACUGGAGCCGCUGGGAACUAAUUUGUAUGCGAAAGUAUAUUGAUUAGUUUUGGAGUACUCGUGGUCG
Method in brief: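 Fitness was computed with DiMSum as the error-weighted combination of replicate fold changes, kanamycin versus none, each normalised to wild type. The library randomised all eight intron nucleotides of the P1ex region, with the intron placed in the knt kanamycin-resistance gene on pET-22b(+) in E. coli BL21(DE3). Six replicate transformations were grown overnight at 37°C or 30°C on LB agar with or without 25 μg/mL kanamycin, plus 100 μg/mL carbenicillin, 50 μM IPTG and 0.2% rhamnose. Pooled colonies were amplicon-sequenced on an Illumina HiSeq 2500.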

Row | Sequence | self-splicing fitness (ln) (30 °C) | self-splicing fitness (ln) (37 °C)
1 | AAGAAGCAAUAUUACGUUCG | -0.932 ± 0.084 | -0.625 ± 0.1
2 | GUCAAGCAAUAUUACGAGGG | -4.08 ± 0.42 | -3.38 ± 0.3
3 | CUGCAGCAAUAUUACGGUGA | -2.37 ± 0.12 | -0.923 ± 0.099
4 | AUGCAGCAAUAUUACGUCGU | -0.894 ± 0.11 | -1.66 ± 0.13
5 | UCAAAGCAAUAUUACGCCAC | -2.5 ± 0.24 | -2.07 ± 0.38
6 | AGGUAGCAAUAUUACGCCUC | -3.88 ± 0.05 | -3.34 ± 0.068
7 | CUGCAGCAAUAUUACGUGGU | -3.34 ± 0.18 | -3.71 ± 0.31
8 | CACGAGCAAUAUUACGGAUG | -3.35 ± 0.16 | -2.47 ± 0.16
9 | CGGCAGCAAUAUUACGACUA | -0.68 ± 0.097 | 0.0629 ± 0.12
10 | CUUCAGCAAUAUUACGGAUC | -1.38 ± 0.08 | -0.259 ± 0.1
11 | UGUAAGCAAUAUUACGAAUU | -2.57 ± 0.25 | -1.64 ± 0.19
12 | GGACAGCAAUAUUACGUCAG | -0.431 ± 0.068 | -0.434 ± 0.084
13 | GAACAGCAAUAUUACGUAGG | -2.12 ± 0.057 | -0.569 ± 0.066
14 | CUAGAGCAAUAUUACGCGAG | -0.514 ± 0.11 | 0.0831 ± 0.13
15 | GUUGAGCAAUAUUACGUUCC | -1.13 ± 0.26 | -1.31 ± 0.34
16 | AUACAGCAAUAUUACGUGCC | -1.16 ± 0.078 | -0.689 ± 0.11
17 | UCACAGCAAUAUUACGCGGA | -1.81 ± 0.18 | -2.12 ± 0.27
18 | UAACAGCAAUAUUACGGCGA | -0.267 ± 0.077 | -0.198 ± 0.08
19 | GUACAGCAAUAUUACGAAUC | -2.65 ± 0.35 | -1.18 ± 0.18
20 | UGAUAGCAAUAUUACGGAGU | -3.8 ± 0.37 | -2.42 ± 0.41
21 | GCUAAGCAAUAUUACGCUUU | -3.06 ± 0.15 | -1.71 ± 0.15
22 | UGAAAGCAAUAUUACGAGGU | -4.07 ± 0.31 | -1.72 ± 0.23
23 | CUAUAGCAAUAUUACGUUAG | -2.54 ± 0.16 | -2.67 ± 0.19
24 | AGAAAGCAAUAUUACGUAUC | -3.62 ± 0.3 | -2.34 ± 0.24

Row | Sequence | self-splicing fitness (ln) (30 °C) | self-splicing fitness (ln) (37 °C)
25 | GCUAAGCAAUAUUACGGAAC | -1.46 ± 0.093 | -0.743 ± 0.1
26 | CCGAAGCAAUAUUACGACCU | -3.73 ± 0.32 | -2.3 ± 0.36
27 | ACGAAGCAAUAUUACGUUGA | -2.14 ± 0.17 | -1.22 ± 0.12
28 | CUAAAGCAAUAUUACGUUGU | -3.91 ± 0.12 | -3.06 ± 0.15
29 | GCUUAGCAAUAUUACGAACU | -0.838 ± 0.08 | 0.0658 ± 0.1
30 | GGUUAGCAAUAUUACGCUCU | -2.24 ± 0.18 | -0.596 ± 0.17
31 | GUCGAGCAAUAUUACGAGAU |  | -2.45 ± 0.39
32 | UUGGAGCAAUAUUACGCCCA | -2.38 ± 0.23 | -0.932 ± 0.4
33 | GCGUAGCAAUAUUACGGGUA | -1.56 ± 0.11 | -0.91 ± 0.098
34 | CCCCAGCAAUAUUACGUUUG | -4.17 ± 0.15 | -2.51 ± 0.12
35 | UUAUAGCAAUAUUACGGCAU | -2.47 ± 0.18 | -2.3 ± 0.25
36 | GGCAAGCAAUAUUACGGUUA | -0.0834 ± 0.075 | 0.577 ± 0.074
37 | AAUCAGCAAUAUUACGAGUG | -0.769 ± 0.053 | -0.281 ± 0.08
38 | AAGAAGCAAUAUUACGCGGU | -3.58 ± 0.3 | -1.54 ± 0.19
39 | CUCCAGCAAUAUUACGUUAU | -3.58 ± 0.22 | -3.38 ± 0.28
40 | AGGUAGCAAUAUUACGUUCC | -0.904 ± 0.018 | -0.623 ± 0.036
41 | CGUGAGCAAUAUUACGUCAA | -2.01 ± 0.24 | -1.35 ± 0.2
42 | AGUUAGCAAUAUUACGACAU | 0.112 ± 0.013 | 0.071 ± 0.033
43 | GAAGAGCAAUAUUACGAGAC | -3.95 ± 0.26 | -1.4 ± 0.25
44 | UCGAAGCAAUAUUACGACCA | -1.16 ± 0.15 | -1.09 ± 0.18
45 | CGUAAGCAAUAUUACGGCUU | -3.69 ± 0.21 | -2.02 ± 0.25
46 | UUCAAGCAAUAUUACGGACA | -0.496 ± 0.12 | 0.121 ± 0.11
47 | CCAUAGCAAUAUUACGGCAA | -3.37 ± 0.28 | -2.9 ± 0.3
48 | ACGGAGCAAUAUUACGAAAC |  | -1.46 ± 0.31
